Assay results taken from patent US20210386788A1, “ER TUNABLE PROTEIN REGULATION” (Obsidian Therapeutics, Inc., priority 2018, published 2021).

Tests used:
Assay type in all cases: cell-based, human
Nalm6 target cells [1] = test: Interferon gamma in T cell/Nalm6 co-culture supernatants (MSD); conditions: co-culture supernatant at 42 hours
Description: (§1) To measure Interferon gamma production, T cells transduced with the constructs OT-00179, OT-002158, OT-001407 or empty vector were thawed and co-cultured with Nalm6 target cells (stably expressing NucRed®) at different ratios of transduced T cells (herein referred to as the Effector) and Nalm 6 cells (herein referred to as the Target). Target cell viability was determined by measuring cellular fluorescence over time using the Incucyte instrument. Data presented in Table 22 are expressed as Nalm6 cell area at representative time points (0, 24, and 42 hour (hr)). The lower the numerical value of the Nalm6 area, the higher the cytotoxicity effected by the Effector cells.
Cell culture supernatants were collected from the T cell/Nalm6 cytotoxicity assay co-cultures at 42 hours. Interferon gamma was measured by MSD and is described in Table 23.

Nalm6 target cells [2] = test: Nalm6 target cell killing by CAR T cells (Incucyte)
Description: (§2) Primary T cells were activated with CD3/CD28 Dynabeads at 3:1 Bead: Cell ratio overnight, then transduced with OT-001792 lentivirus. On day 7 of the T cell expansion, CAR expression was measured by flow cytometry with CD19-Fc on cells treated overnight in the presence (34% positive) or absence (0.6% positive) of 1 μM Bazedoxifene. After the T cells had expanded for 10 days, they were mixed with CD19-expressing Nalm6 target cells at ratios of 10:1 and 2.5:1 total T cells:Nalm6 cells and cultured for 3 days.
as §1

primary T cells = test: CD19 CAR expression on lentivirus transduced primary T cells (flow cytometry with CD19-Fc); conditions: for CAR expression, % positive: day 7 of T cell expansion
Description: as §2
Primary T cells were activated with CD3/CD28 Dynabeads at 3:1 Bead:Cell ratio overnight, then transduced with lentiviruses derived from the indicated constructs. On day 7 or day 9 (as indicated) of the T cell expansion, CAR expression was measured by flow cytometry with CD19-Fc on cells incubated for 24 hours with 1 μM Bazedoxifene or 1 μM Raloxifene or DMSO. […] At day 9 the basal percentage of CAR positive cells for the same constructs was even lower at approximately 20% i.e. in the absence of ligand and about 32-45% in the presence of either ligand. […] This was true at both day 7 and day 9.
Human donor T cells were thawed and activated overnight in the presence of CD3/CD28 Dynabeads at 3:1 bead:cell ratio, then transduced with lentivirus related to OT-002158, or OT-001786. Cells were expanded over the course of 10 days, with fresh media added to maintain cells at around 0.5×10^6 cells/mL. On day 9, an aliquot of cells was removed, and treated with 1 μM Bazedoxifene overnight or DMSO vehicle control, then stained with 10 μg/mL CD19-Fc. Histograms showing CAR expression from a Live Singlet cell gate were plotted.
Human donor T cells were thawed and activated overnight in the presence of CD3/CD28 Dynabeads at 3:1 bead:cell ratio, then transduced with lentivirus from the constructs. Cells were expanded over the course of 10 days, and fresh media was added to maintain cells around 0.5×10^6 cells/ml. On day 9, an aliquot of cells were removed, treated with 1 μM Bazedoxifene overnight, then stained with 10 μg/mL CD19-Fc. Histograms showing CAR expression from a Live Singlet cell gate were plotted. The data are shown in Table 19 and Table 20 where data are presented as % CAR positive cells, where SR indicates stabilization ration.
T cells were transduced with OT-00179, OT-002158, OT-001407 or empty vector and expanded as described herein, frozen on day 10. To confirm the expression and function of this large scale expansion for in vivo use, cells were thawed and incubated overnight in the presence of CD3/28 beads (1:1 bead:cell ratio) and with or without 1 μM Bazedoxifene. FACS staining with 1 μg/mL CD19-Fc was performed to measure the surface expression of CD19-CAR. The data are provided in Table 21 as the percentage CAR positive cells.

B1: OT-001792: CD8α leader; Linker (RS); ER (L384M, M421G, G521R, Y537S); Furin cleavage site; CD19 CAR; SEQ ID NO. 406 (protein)
chain: MALPVTALLLPLALLLHAARPRSSLALSLTADQMVSALLDAEPPILYSEYDPTRPFSEASMMGLLTNLADRELVHMINWAKRVPGFVDLTLHDQVHLLECAWMEILMIGLVWRSMEHPGKLLFAPNLLLDRNQGKCVEGGVEIFDMLLATSSRFRMMNLQGEEFVCLKSIILLNSGVYTFLSSTLKSLEEKDHIHRVLDKITDTLIHLMAKAGLTLQQQHQRLAQLLLILSHIRHMSNKRMEHLYSMKCKNVVPLSDLLLEMLDAHRLGTGAEDPRPSRKRRSLGDVGEIVMTQSPATLSLSPGERATLSCRASQDISKYLNWYQQKPGQAPRLLIYHTSRLHSGIPARFSGSGSGTDYTLTISSLQPEDFAVYFCQQGNTLPYTFGQGTKLEIKGGGGSGGGGSGGGGSQVQLQESGPGLVKPSETLSLTCTVSGVSLPDYGVSWIRQPPGKGLEWIGVIWGSETTYYSSSLKSRVTISKDNSKNQVSLKLSSVTAADTAVYYCAKHYYYGGSYAMDYWGQGTLVTVSSTTTPAPRPPTPAPTIASQPLSLRPEACRPAAGGAVHTRGLDFACDIYIWAPLAGTCGVLLLSLVITLYCKRGRKKLLYIFKQPFMRPVQTTQEEDGCSCRFPEEEEGGCELRVKFSRSADAPAYKQGQNQLYNELNLGRREEYDVLDKRRGRDPEMGGKPRRKNPQEGLYNELQKDKMAEAYSEIGMKGERRRGKGHDGLYQGLSTATKDTYDALHMQALPPR
IFN gamma levels, 1 μM Bazedoxifene (Nalm6 target cells [1]; 1 μM Bazedoxifene): 7079.60 pg/mL
IFN gamma levels, Vehicle (Nalm6 target cells [1]; vehicle): 91.09 pg/mL
Nalm 6 area, total target area (Nalm6 target cells [2]; 0 hr, Effector:Target 0.3:1, + 1 μM Bazedoxifene): 57617.98
Nalm 6 area, total target area (Nalm6 target cells [2]; 0 hr, Effector:Target 0.3:1, no ligand): 71711.59
Nalm 6 area, total target area (Nalm6 target cells [2]; 0 hr, Effector:Target 1:1, + 1 μM Bazedoxifene): 67768.82
Nalm 6 area, total target area (Nalm6 target cells [2]; 0 hr, Effector:Target 1:1, no ligand): 62673.31
Nalm 6 area, total target area (Nalm6 target cells [2]; 0 hr, Effector:Target 3:1, + 1 μM Bazedoxifene): 54788.54
Nalm 6 area, total target area (Nalm6 target cells [2]; 0 hr, Effector:Target 3:1, no ligand): 60708.63
Nalm 6 area, total target area (Nalm6 target cells [2]; 0 hr, Effector:Target 10:1, + 1 μM Bazedoxifene): 55572.92
Nalm 6 area, total target area (Nalm6 target cells [2]; 0 hr, Effector:Target 10:1, no ligand): 57172.20
Nalm 6 area, total target area (Nalm6 target cells [2]; 24 hr, Effector:Target 0.3:1, + 1 μM Bazedoxifene): 94217.60
Nalm 6 area, total target area (Nalm6 target cells [2]; 24 hr, Effector:Target 0.3:1, no ligand): 123175.80
Nalm 6 area, total target area (Nalm6 target cells [2]; 24 hr, Effector:Target 1:1, + 1 μM Bazedoxifene): 103535.70
Nalm 6 area, total target area (Nalm6 target cells [2]; 24 hr, Effector:Target 1:1, no ligand): 104433.20
Nalm 6 area, total target area (Nalm6 target cells [2]; 24 hr, Effector:Target 3:1, + 1 μM Bazedoxifene): 67794.87
Nalm 6 area, total target area (Nalm6 target cells [2]; 24 hr, Effector:Target 3:1, no ligand): 105474.34
Nalm 6 area, total target area (Nalm6 target cells [2]; 24 hr, Effector:Target 10:1, + 1 μM Bazedoxifene): 40606.37
Nalm 6 area, total target area (Nalm6 target cells [2]; 24 hr, Effector:Target 10:1, no ligand): 93991.37
Nalm 6 area, total target area (Nalm6 target cells [2]; 42 hr, Effector:Target 0.3:1, + 1 μM Bazedoxifene): 143903.95
Nalm 6 area, total target area (Nalm6 target cells [2]; 42 hr, Effector:Target 0.3:1, no ligand): 197082.75
Nalm 6 area, total target area (Nalm6 target cells [2]; 42 hr, Effector:Target 1:1, + 1 μM Bazedoxifene): 133539.50
Nalm 6 area, total target area (Nalm6 target cells [2]; 42 hr, Effector:Target 1:1, no ligand): 171919.20
Nalm 6 area, total target area (Nalm6 target cells [2]; 42 hr, Effector:Target 3:1, + 1 μM Bazedoxifene): 58548.97
Nalm 6 area, total target area (Nalm6 target cells [2]; 42 hr, Effector:Target 3:1, no ligand): 180465.55
Nalm 6 area, total target area (Nalm6 target cells [2]; 42 hr, Effector:Target 10:1, + 1 μM Bazedoxifene): 25302.71
Nalm 6 area, total target area (Nalm6 target cells [2]; 42 hr, Effector:Target 10:1, no ligand): 156073.75
CD19-CAR mediated target cell killing (Nalm6 target cells [2]; T cells:Nalm6 10:1 and 2.5:1, 3 days, with or without 1 μM Bazedoxifene): observed specifically in the presence of 1 μM Bazedoxifene
ligand dependent regulation of CAR expression (in words) (primary T cells; 1 μM Bazedoxifene or Raloxifene versus DMSO, day 7 or day 9): did not show any ligand dependent regulation of CAR expression
% CAR positive cells, Bazedoxifene (primary T cells; Table 21, thawed cells, overnight with CD3/28 beads, 1 μM Bazedoxifene, 1 μg/mL CD19-Fc): 39.6%
% CAR positive cells, Vehicle (primary T cells; Table 21, thawed cells, overnight with CD3/28 beads, without Bazedoxifene, 1 μg/mL CD19-Fc): 0.39%
CAR expression, % positive (primary T cells; overnight in the absence of Bazedoxifene): 0.6%
CAR expression, % positive (primary T cells; overnight in the presence of 1 μM Bazedoxifene): 34%
